The values below come from article PMC12644675, “The mass spectrometric intact transition epitope mapping method supports protein engineering of foldon trimer variants” (Scientific Reports, 2025).

Series [1] can be described thus: Travelling wave ion mobility CCS calibration: drift times and TWCCSN2 of calibrant protein ions. It is filed as physicochemical. The note with it: drift gas nitrogen, repeat determinations printed as separate rows; for dt exp.: in ms; for TWCCSN2: in Å2. The text has this: Supplement 41598_2025_28101_MOESM1_ESM.docx, table 25: Table S18: Drift times, experimentally determined CCS, and literature references of calibrant proteins. | column: CCS determinations ^a); CCS from literature ^a)

For series [2] the following is noted: drift gas nitrogen, in Å2, cited from earlier work. The text has this: Supplement 41598_2025_28101_MOESM1_ESM.docx, table 25: Table S18: Drift times, experimentally determined CCS, and literature references of calibrant proteins. | column: CCS from literature ^a)

Like-named read-outs stand apart in the source and are kept apart here.

serum albumin displayed a dt exp. in series [1] (calibrant ion z = 15) of 18.80. Further, the TWCCSN2 in series [1] (calibrant ion z = 15) was determined as 4310. For the same substance, the “CCS from literature, CCS exp.” value was 4490 in series [2] (calibrant ion z = 15), 4470 in series [2] (calibrant ion z = 16) and 4490 in series [2] (calibrant ion z = 17).
In the case of ubiquitin, in series [1] (calibrant ion z = 4), the dt exp. amounted to 11.75 and the TWCCSN2 worked out at 956. Besides, the “CCS from literature, CCS exp.” value in series [2] (calibrant ion z = 4) is 949. The “CCS from literature, CCS exp.” value in series [2] (calibrant ion z = 5) was 1011.
